In publication PMC4052849 (2014):

Target: T1, DS-SILY20 (decorin mimic, SILY peptide-dermatan sulfate conjugate) (about 20 SILY peptides conjugated via BMPH to dermatan sulfate)
T1 chain: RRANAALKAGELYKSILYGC
Assay: solid-phase binding assay

B1: IFN-γ (protein)
chain: QDPYVKEAENLKKYFNAGHSDVADNGTLFLGILKNWKEESDRKIMQSQIVSFYFKLFKNFKDDQSIQKSVETIKEDMNVKFFNSNKKKRDDFEKLTNYSVTDLNVQRKAIHELIQVMAELSPAAKTGKRKRSQMLFRG
Kd: 55.1 nM
